Bridge positions count the residues as written; N and C are the ends. Ends that are not written are not given here.
Assay: In-use chemical stability of vaccine emulsions by UPLC/MS after extraction of peptides
Format: physicochemical
Settings: for Peptides and related substances (≥0.05%) [Area %]: peak in reconstituted P53-DP-5P; for Related substances (≥0.05%) [Area %]: peak in reconstituted PRAME-DP-5P
Protocol: For samples showing complete dissolution, an emulsion stability of >2 hours, and a chemical stability of the Drug Product solutions (without additional dilution) of >2 hours, the in-use chemical stability of the vaccine emulsions with Montanide ISA 51 VG was monitored with UPLC/MS. For analysis of chemical stability of the reconstituted and emulsified Drug Products, samples were analyzed at various time points, at least up to 2 hours after dissolution. UPLC/MS analysis was performed according to the method describe above for chemical stability of the Drug Product solution, using an extra sample preparation step for extraction of the peptides from the vaccine emulsion. For sample preparation of emulsified products, the following steps were applied: • Take 300 μL Reconstitution Solution and add this to a 15 mL Greiner tube • Add 100 μL heptane • Add 200 μL of the Drug Product emulsion. Pipet the solution up and down three times. • Vortex the mixture for 30 seconds • Centrifuge the mixture for 5 minutes at 4400 rpm to obtain a two-phase system • With a 20-200 μL pipette, take a 100 μL sample from the bottom layer and transfer to a total recovery UPLC vial. • Analyze with UPLC/UV/MS according to the method described for chemical stability of the Drug Product solutions. Results Solvent Screening for Reconstitution and Emulsification
Analysis of chemical stability was performed by UPLC-MS as described in Example 1, at the section describing methods for analysis of in-use chemical stability of HPV-DP-6P and HPV-DP-7P vaccine emulsions including extraction of the peptides from the vaccine emulsion.
Purity of the Drug Product at different time points was calculated as follows: Purity (%)=100%−Sum of impurities≥0.05% area

Substance	Peptides and related substances (≥0.05%) [Area %] (in-use storage t = 0 h)	Peptides and related substances (≥0.05%) [Area %] (in-use storage t = 1 h)	Peptides and related substances (≥0.05%) [Area %] (in-use storage t = 2 h)	Peptides and related substances (≥0.05%) [Area %] (in-use storage t = 3 h)	Related substances (≥0.05%) [Area %] (in-use storage t = 0 h)	Related substances (≥0.05%) [Area %] (in-use storage t = 1 h)	Related substances (≥0.05%) [Area %] (in-use storage t = 2 h)	Related substances (≥0.05%) [Area %] (in-use storage t = 3 h)
SEQ ID NO 193: P53-derived synthetic long peptide, component of P53 DP-5P (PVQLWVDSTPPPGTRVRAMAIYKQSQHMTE)	23.90 Area %	22.38 Area %	22.31 Area %	22.19 Area %	–	–	–	–
SEQ ID NO 166: PRAME-derived peptide, component of PRAME DP-5P (SYEDIHGTLHLERLAYLHARLRELLCELGRPSMV)	–	–	–	–	13.49 Area %	14.15 Area %	13.81 Area %	13.59 Area %
SEQ ID NO 201: P53-derived synthetic long peptide, component of P53 DP-5P (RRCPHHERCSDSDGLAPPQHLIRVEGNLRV)	12.43 Area %	11.73 Area %	11.72 Area %	11.60 Area %	–	–	–	–
SEQ ID NO 153: PRAME-derived peptide, component of PRAME DP-5P (LETFKAVLDGLDVLLAQEVRPRRWKLQVLDLRK)	–	–	–	–	21.89 Area %	22.70 Area %	22.51 Area %	22.59 Area %
SEQ ID NO 160: PRAME-derived peptide, component of PRAME DP-5P (LRRLLLSHIHASSYISPEKEEQYIAQFTSQFLS)	–	–	–	–	13.61 Area %	13.49 Area %	13.34 Area %	13.40 Area %
SEQ ID NO 156: PRAME-derived peptide, component of PRAME DP-5P (IPVEVLVDLFLKEGACDELFSYLIEKVKRKKNVLR)	–	–	–	–	10.56 Area %	10.52 Area %	10.17 Area %	9.98 Area %
SEQ ID NO 155: PRAME-derived peptide, component of PRAME DP-5P (WTVWSGNRASLYSFPEPEAAQPMTKKRKVDGLST)	–	–	–	–	23.35 Area %	22.85 Area %	22.65 Area %	22.62 Area %
SEQ ID NO 191: P53-derived synthetic long peptide, component of P53 DP-5P (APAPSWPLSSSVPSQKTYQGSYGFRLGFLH)	30.37 Area %	28.75 Area %	28.81 Area %	28.81 Area %	–	–	–	–
SEQ ID NO 203 intramolecular disulfide: related substance: intramolecular disulfide of the peptide set forth in SEQ ID NO: 203 (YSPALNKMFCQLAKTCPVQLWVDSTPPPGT; disulfide 10-16 (inferred))	<	1.05 Area %	1.54 Area %	1.87 Area %	–	–	–	–
SEQ ID NO 203: P53-derived synthetic long peptide, component of P53 DP-5P (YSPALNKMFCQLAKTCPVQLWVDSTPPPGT)	13.73 Area %	16.73 Area %	16.21 Area %	15.56 Area %	–	–	–	–
SEQ ID NO 194: P53-derived synthetic long peptide, component of P53 DP-5P (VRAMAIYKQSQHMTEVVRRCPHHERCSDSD)	13.00 Area %	12.02 Area %	11.87 Area %	11.63 Area %	–	–	–	–

Source: patent US12097252B2, “Formulation of a peptide vaccine” (priority 2016, dated 2024)
